Drawing on the supplement of paper PMC12042874, this text covers amyloid nucleation score for 138 substances.

± gives the uncertainty stated by the source.

This data set is described as follows: amyloid nucleation score (Sup35N fusion, yeast selection) (log enrichment); library NNK1; higher = more nucleation; inactive = no reads after selection. The procedure, abridged: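 Three technical output replicates were used for random libraries. Psi-negative yeast expressing peptides of 20 random codons fused to Sup35N were induced with 100 μM copper sulfate for 24 hours and grown 7 days at 30°C on medium lacking adenine and uracil, and input and output plasmid inserts were Illumina-sequenced, excluding sequences with under 100 input reads. The nucleation score is the DiMSum log enrichment of output over input reads, centred on the mode score of non-aggregating sequences.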
For DKRECFGLDLEIWSMVVWMW, the amyloid nucleation score worked out at 0.611 ± 0.8. Substance DKRIARLNPRIGTSVSWDVS gave an amyloid nucleation score of 0.89 ± 0.5.

As to DLCQEPIG, the amyloid nucleation score was -0.379 ± 0.3. In the case of DLEGMPELARDVGAKI, the amyloid nucleation score was -0.825 ± 0.98.

Turning to DLEIAGREGS, the amyloid nucleation score was -0.322 ± 0.55. For DLFSTVFNWMTNCPFKNSW, the amyloid nucleation score is -0.32 ± 0.49. As for DLIGFSWGTIEWLRA, the amyloid nucleation score is -0.931 ± 0.64.

DLRKAGGWHRVIC returned an amyloid nucleation score of 0.111 ± 0.56. In the case of DLRSSGFDTELILQVSVQLL, the amyloid nucleation score was -0.264 ± 0.59. In turn, DLTCWLLFFNLLYSI came in with an amyloid nucleation score of 0.492 ± 0.33. The substance DLTVRPACAGCRLYSEVILD yielded an amyloid nucleation score of -0.852 ± 1.6. Substance DLYSGSSFPEISGETSGYIP came in with an amyloid nucleation score of 0.06 ± 0.49. For DMIDSGGNALHSSQAHNYRR, the amyloid nucleation score amounted to 1.08 ± 0.37.

For DMMAIGSTTVCLVLRFFGKM, the amyloid nucleation score was -0.929 ± 2.7. The substance DMSFRYLSGSVNLCVVHLRR showed an amyloid nucleation score of -0.244 ± 1.1.

The substance DMTWNKQHFYGCSISYRSGT returned an amyloid nucleation score of 5.99 ± 0.086. Regarding DNDPMYYADSIEECF, the amyloid nucleation score entry is “inactive”.

In the case of DNGCDEVCWELVFEFVD, the amyloid nucleation score is 0.562 ± 0.39.

In turn, DNGFSTQA registered an amyloid nucleation score of -0.11 ± 0.82.

The substance DNKGYL gave an amyloid nucleation score of -0.977 ± 1. DNTGQVRIW yielded an amyloid nucleation score of -0.562 ± 0.62. For the substance DNTIYDSMCFDAGNPDLCIH, the amyloid nucleation score was 0.439 ± 0.23. Turning to DRCVQCTALTASTGR, the amyloid nucleation score was -0.113 ± 0.94. In the case of DRFRRTNAIGLVHMDSGKG, the amyloid nucleation score was found to be 0.907 ± 0.39. Take DRPTFKLVFTMKLVSLVTSL: the amyloid nucleation score result was “inactive”. For the substance DSEKGSVLYLVMRGMNCVSI, the amyloid nucleation score is 4.69 ± 0.052. For the substance DSFVRT, the amyloid nucleation score result was “inactive”. The same measure for DSGCRTRVTLSRGFYRTFSS: 1.2 ± 0.6. The figure for DSGTLDQYH is 0.157 ± 0.86; for DSLFTIYMNSISFR it is 5.83 ± 0.093; for DSLWLRYVFMRTVLLMVHVR it is “inactive”. The same measure for DSMKMIILVDVGRNHGLGHR: 3.32 ± 0.16. Consider DSRGHGEPRRTWEW, for which the amyloid nucleation score was -0.006 ± 0.58. As for DSSRTLFCRAHWGSRFNGRG, the amyloid nucleation score was -1.69 ± 2.4. For the substance DSSSYICSLSSPYSWSISFF, the amyloid nucleation score was 7.366 ± 0.07. For DSTRTDSLYVSACHLLYLAE, the amyloid nucleation score was 0.178 ± 0.64. DSWEYFLP displayed an amyloid nucleation score of -0.375 ± 0.53. On to DTCYHINIGKTQSADQRDCT, for which the amyloid nucleation score came out at 0.219 ± 0.25.

With DTGSFFVSVRLSAWVIPPCK, the amyloid nucleation score is -0.063 ± 0.39.

Regarding DTKCMMENRAIVMFCIQGKH, the amyloid nucleation score was found to be 0.827 ± 0.3.

For the substance DTLIFVLREVTLLNDAGVSS, the amyloid nucleation score amounted to 0.646 ± 0.42.

Consider DTSSACLCNRDRSDLLVCRV, for which the amyloid nucleation score result is “inactive”. In turn, DVFVY displayed an amyloid nucleation score of -0.273 ± 0.45. For the substance DVFYVILNVSLVCSVPFLSA, the amyloid nucleation score was -0.179 ± 0.72. Take DVLLPSLTEVAINFSSVTLK: the amyloid nucleation score is -0.242 ± 0.41. DVLLSFEYLD: the amyloid nucleation score entry is “inactive”. For DVREITCLSHKRTRHQVHPV, the amyloid nucleation score amounted to 0.07 ± 1.2. In turn, DVRRYSGLNRAMKLRWGSCA came in with an amyloid nucleation score of 0.193 ± 0.79.

In the case of DVVFGFLGVGKLIGVDTMRR, the amyloid nucleation score is -0.725 ± 0.9. DVYKKIFLRLNCYQVSMRIE: the amyloid nucleation score is -0.697 ± 0.27. DWFAECVFLRRTLESY showed an amyloid nucleation score of -0.601 ± 0.4. With DWLFLEFGHFTMPEHTKELE, the amyloid nucleation score was -0.68 ± 1.2. The same measure for DWLHQSRL: 0.239 ± 0.42; for DWVPLKSHISWLSVTRVLIV: 0.636 ± 0.46.

DWVWWRTPSELVVYGADNWR registered an amyloid nucleation score of -0.328 ± 0.84. The figure for DWWLPGMLMNRGGLQIVVLV is -0.84 ± 1.1. Regarding DYFLCKFSTDDPCLVFISWE, the amyloid nucleation score result was “inactive”. As to DYIIPMLSI, the amyloid nucleation score stood at 0.515 ± 0.9. The same measure for DYKVTRPVDLVFDFGGIVYT: 0.714 ± 0.22; for DYLLCLILAKVWDDSNGSWV: 1.52 ± 0.5. For DYRIEVSLSVVYCFGLNMRN, the amyloid nucleation score worked out at 2.38 ± 0.082. DYSNERLTDGLRMGGTRVSG registered an amyloid nucleation score of 0.251 ± 0.54. Substance EALNPVVLPSTN showed an amyloid nucleation score of 1.55 ± 0.14. EASLAPYEESELA: the amyloid nucleation score worked out at 1.76 ± 0.54. As to EAVSPYMYNYFRMANEQ, the amyloid nucleation score stood at 0.311 ± 0.42. On to ECAIKG, for which the amyloid nucleation score is 1.38 ± 0.69.

ECRGQLSDKIVQYNRPEVYW: the amyloid nucleation score is -0.199 ± 0.28. The figure for ECRMYLLTLVARRSRNPDNC is 1.03 ± 0.61; for ECYLV it is -0.663 ± 0.8. The entry for EDDFASMRLDSLRELVLHNR is “inactive”. As to EDLRLGSSYYEMANEASYGT, the amyloid nucleation score is 1.82 ± 0.11. Consider EDSYFYFRIEGISTVKCMAR, for which the amyloid nucleation score was -0.427 ± 1.9. Consider EECAFYSSMK, for which the amyloid nucleation score result was “inactive”. The figure for EECGLGCAVKA is 0.188 ± 0.19; for EEFFMLRVDWIEEANQCKRE it is 0.221 ± 0.47. The same measure for EFDFK: -0.716 ± 0.74; for EFELRASNLPFNVFPIGFSN: 1.07 ± 0.67; for EFSLGSPIKWTNHGLVIKGM: 2.71 ± 0.13. EFVGVGNIVPFTTSWLIMGR showed an amyloid nucleation score of 0.271 ± 0.2.

Substance EGHARKKEWLTITPRER returned an amyloid nucleation score of 0.261 ± 0.38. Take EGRSWW: the amyloid nucleation score is -0.691 ± 1.4.

Take EGSQLSPAWFGYRDDGFTTM: the amyloid nucleation score is 0.904 ± 1. Consider EGYAWGPYLKLTRSKLRMSF, for which the amyloid nucleation score was -0.374 ± 0.81. Turning to EHSSVCLESSQYVRMVVIKQ, the amyloid nucleation score stood at 0.531 ± 0.66. Take EHTSGVDFIVNNLSECFTLR: the amyloid nucleation score result was “inactive”. Regarding EISVWVEALFSLYFRNWISG, the amyloid nucleation score worked out at 0.229 ± 0.84. On to EIYGKCLNPIGL, for which the amyloid nucleation score is 0.53 ± 0.52.

Regarding EKGRFVRLDERLYYLCVVWS, the amyloid nucleation score was 0.163 ± 0.66. Substance EKHEVVCIVKTVR showed an amyloid nucleation score of 0.424 ± 0.85. EKIQINQKG registered an amyloid nucleation score of 1.04 ± 0.66.

Turning to EKSGAWSTVRRMISC, the amyloid nucleation score came out at 0.374 ± 0.23.

ELMCNTQSLSAETCFGKKSY yielded an amyloid nucleation score of 0.97 ± 0.63. The figure for ELYCEVSSKIAGLDLFV is 0.57 ± 0.78. The entry for EMTCAWDGNELLFKQRRTIR is “inactive”; for ENCFSCNEYCERYSPALCGQ it is “inactive”; for ENEAGATYDGMMVVGSELSS it is 0.997 ± 0.43. The substance ENERMTLHCGYFKNMCMFRF came in with an amyloid nucleation score of 1.9 ± 0.22. Take ENKLNSPPWMLSLFTFLIVV: the amyloid nucleation score was -0.242 ± 0.66. The figure for ENLGGWAPTLCYRRT is 0.187 ± 0.4; for ENVCFLTKM it is 0.423 ± 0.26; for ENVSVIRFQRRYRSCPDHGL it is 0.04 ± 0.46.

Turning to EPFETQEVMSLNMCSNQMVF, the amyloid nucleation score was 0.333 ± 0.27. Take EPSLERRRRPSEMVGAKGWI: the amyloid nucleation score is -0.374 ± 1.1. The same measure for ERDCAMISNLSNLTVNY: -0.616 ± 0.36; for ERIRTHIRPIGCRRNLMVGW: 1.08 ± 0.63. Turning to ERRLTTFCCMWANLGVADGT, the amyloid nucleation score worked out at 0.436 ± 1. As for ERVSRSVGPACAREETKGST, the amyloid nucleation score worked out at 0.354 ± 0.77. Regarding ESAHNWWNPVSSYL, the amyloid nucleation score worked out at 1.06 ± 0.58. With ESCKSVNCLMRQGDLRVTAW, the amyloid nucleation score was -0.122 ± 0.3. ESHLRASAGLWLSAGRDCNG registered an amyloid nucleation score of 1.38 ± 0.63. For the substance ESLFLVCRPRRQVFIVSCRS, the amyloid nucleation score is -0.716 ± 0.38. The substance ESMDSWDYVLNISAEMVYCR had an amyloid nucleation score of 0.366 ± 0.54. The substance ESQSRGLMIVNGDFKD gave an amyloid nucleation score of 0.018 ± 0.37. ESSGRGCVPSEKIDEHGPVT: the amyloid nucleation score is -0.319 ± 1.

The substance ESSNLYYYRTSHKKKTTLCS had an amyloid nucleation score of -0.639 ± 1.7. For the substance ESTLNRVRVTALETVQQCLS, the amyloid nucleation score worked out at 0.275 ± 1.2. ETAEMIAVPDRAHF showed an amyloid nucleation score of 1.05 ± 0.57. ETEGSELFNFWAGVNWRRIQ had an amyloid nucleation score of -0.425 ± 1.3. The figure for ETHVRAPSGGNAGPLRRGSS is -0.877 ± 0.52; for ETSGSPFILIICIYELNVVM it is 4.61 ± 0.07. Regarding ETTRNKAMNTFMLPFSQSCK, the amyloid nucleation score is 0.39 ± 0.56. In turn, EVAFRVTCCSCWLISRNVGR showed an amyloid nucleation score of 2.77 ± 0.15. Consider EVCVLRTLNRKNFDEPDNCI, for which the amyloid nucleation score is 0.913 ± 0.56.

Regarding EVGNCFLESPGMVYVVGRDR, the amyloid nucleation score turned out to be 0.51 ± 0.52. The figure for EVIAGCGLRCRSSNHIVREM is 0.104 ± 0.36; for EVILFNGLRMRAVPETWAST it is 0.587 ± 0.4. As for EVNLHLGCVWLVRLCVSDDG, the amyloid nucleation score came to 2.08 ± 0.19. The same measure for EVQSDSSEVRDTEYMDISSW: “inactive”.

The substance EVWNRTWIGEENVTGPFVPR showed an amyloid nucleation score of -0.012 ± 0.24. EWDSYMGPFAERMEYNVVFH had an amyloid nucleation score of 0.398 ± 0.62. As for EWRFCKS, the amyloid nucleation score was -0.335 ± 0.33. Substance EWVALRCLDMEGAVAPLALV came in with an amyloid nucleation score of 1.02 ± 0.28. EYLLNNPVGRCFDLLFNSIG returned an amyloid nucleation score of -0.881 ± 0.66. On to EYMFGYVSLSVDGSTLEFHD, for which the amyloid nucleation score was determined as 0.107 ± 0.24. The same measure for EYSADTIGVIGLGTAPDERR: -0.239 ± 0.84; for EYVVRYSCMWRE: 0.485 ± 1.2; for FAAVPYISVLIRRLCLPYRT: 1.07 ± 0.7.

Turning to FALIRN, the amyloid nucleation score is -0.368 ± 1.7.
